{"source": "paper PMC9304195", "origin": "cited, not measured here", "molecular_target": "UGGT (Homo sapiens) (UniProt Q9NYU2)", "sequence (Q9NYU2 43-1555)": "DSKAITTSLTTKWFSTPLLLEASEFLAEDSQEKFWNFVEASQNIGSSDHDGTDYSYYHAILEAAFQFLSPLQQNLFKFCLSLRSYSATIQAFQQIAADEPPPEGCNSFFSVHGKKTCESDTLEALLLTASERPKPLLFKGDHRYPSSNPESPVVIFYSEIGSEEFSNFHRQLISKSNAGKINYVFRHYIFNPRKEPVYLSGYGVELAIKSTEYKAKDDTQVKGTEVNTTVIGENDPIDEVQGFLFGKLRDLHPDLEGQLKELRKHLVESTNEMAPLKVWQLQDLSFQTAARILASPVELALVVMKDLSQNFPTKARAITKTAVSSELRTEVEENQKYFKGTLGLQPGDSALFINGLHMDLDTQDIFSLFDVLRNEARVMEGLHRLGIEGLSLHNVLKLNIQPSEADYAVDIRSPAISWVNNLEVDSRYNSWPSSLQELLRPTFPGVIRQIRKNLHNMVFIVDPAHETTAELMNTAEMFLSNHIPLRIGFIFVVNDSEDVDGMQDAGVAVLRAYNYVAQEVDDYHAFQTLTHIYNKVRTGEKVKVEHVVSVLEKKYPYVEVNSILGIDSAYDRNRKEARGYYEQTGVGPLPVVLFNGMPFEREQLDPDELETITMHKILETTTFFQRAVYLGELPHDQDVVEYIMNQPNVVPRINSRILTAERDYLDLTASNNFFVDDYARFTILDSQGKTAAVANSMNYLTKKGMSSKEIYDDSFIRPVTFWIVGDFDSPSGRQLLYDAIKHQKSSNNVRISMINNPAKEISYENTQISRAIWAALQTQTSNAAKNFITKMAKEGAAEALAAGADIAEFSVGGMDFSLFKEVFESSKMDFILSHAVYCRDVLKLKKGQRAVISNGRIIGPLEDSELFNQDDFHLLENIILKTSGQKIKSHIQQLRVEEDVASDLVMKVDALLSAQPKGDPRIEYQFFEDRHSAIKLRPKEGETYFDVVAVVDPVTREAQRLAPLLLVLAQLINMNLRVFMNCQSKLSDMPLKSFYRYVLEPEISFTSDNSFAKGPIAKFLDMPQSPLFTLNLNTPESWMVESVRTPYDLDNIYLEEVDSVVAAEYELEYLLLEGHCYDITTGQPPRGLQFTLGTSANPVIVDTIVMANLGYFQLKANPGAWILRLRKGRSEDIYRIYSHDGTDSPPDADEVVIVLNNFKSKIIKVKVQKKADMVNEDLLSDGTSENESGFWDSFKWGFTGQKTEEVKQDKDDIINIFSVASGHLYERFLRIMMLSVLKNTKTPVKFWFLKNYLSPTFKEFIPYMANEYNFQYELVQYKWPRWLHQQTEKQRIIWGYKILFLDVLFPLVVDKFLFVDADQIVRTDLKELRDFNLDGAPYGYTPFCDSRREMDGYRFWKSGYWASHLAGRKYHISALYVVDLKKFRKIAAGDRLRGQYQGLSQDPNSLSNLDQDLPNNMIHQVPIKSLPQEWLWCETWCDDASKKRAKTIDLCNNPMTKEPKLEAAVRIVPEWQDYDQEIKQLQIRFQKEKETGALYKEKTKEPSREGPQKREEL"}
{"substance": "SELENOF (from UniProt O60613)", "values": [{"measurement": "Kd", "result": 20, "unit": "nM"}]}
